# B1: Outer-membrane lipoprotein carrier protein (Escherichia coli (strain K12)), P61316 (parent)
# chain: MKKIAITCALLSSLVASSVWADAASDLKSRLDKVSSFHASFTQKVTDGSGAAVQEGQGDLWVKRPNLFNWHMTQPDESILVSDGKTLWFYNPFVEQATATWLKDATGNTPFMLIARNQSSDWQQYNIKQNGDDFVLTPKASNGNLKQFTINVGRDGTIHQFSAVEQDDQRSSYQLKSQQNGAVDAAKFTFTPPQGVTVDDQRK
# partner: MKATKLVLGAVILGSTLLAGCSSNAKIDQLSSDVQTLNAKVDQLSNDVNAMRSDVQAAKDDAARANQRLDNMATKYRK
# Variants of: B1
# Conditions: with lpp_ecoli lpp
row,Variant,effect of a mutation on the interaction
1,I114G,increasing interaction
